Patent US20110008383A1

Legend:
[1] = target: CS protein on PfPb transgenic sporozoites (P. falciparum CS repeats in the context of the P. berghei CS protein); assay: cell-based or functional assay
[2] = target: DR 13 molecules (UniProt P01903); assay: peptide competition assay with DR 13 molecules

| Substance | inhibition in TSNA, about 25 µg antibody [1] [%] | IC50 [2] [µM] |
| --- | --- | --- |
| MAB 2A10 (antibody) | 96 | – |
| P. falciparum peptide (T* universal epitope of the CS protein) | – | 1.8 |
